Measurements taken from the DeepSol protein solubility set.

Assay: soluble on expression in E. coli; label from the status in PepcDB or PDB records

Row | Sequence | soluble on expression in E. coli
1 | MGSDKIHHHHHHMKKYLTLAASALLLAACSEKPGYEINGTVANTDLNGKYVYLYEYGVQDAAPMDSALVQNGTFTFKGTQSAPALRKLAFAEDVVEPKRAASGENAPFTSVFVLENGKLQAVLDEAASAVSGTPENDGLKALQAQMKTLRADLEKLSADMKSEDKEVVSAAEKKYDEIDQKVTDAVKTYILNNTTKQSAAKLLYDFRYSLDEAAQNEIIAKADSAFKAVPNIDKLMAHLDVLKTVAVGKKFVDFEMADPNGKTHKLSEFVGNGKNIVLIDFWASWCPPCRRDMPNLVAAYKKYKNKGFEIVGISLDSKADAWAKGVKDLNITWTQLSDLQGWKNSGAQLYGVNSIPHTVLVDKDGTIIAKNLHGEEIDAKLQEILK | not soluble
2 | MKGEEKMPSFDIVSEVDLQEARNGVDNAVREVESRFDFRGVEATIELNDANKTIKVLSESDFQVNQLLDILRAKLLKRGIEGASLDVPDEFVHSGKTWYVEAKLKQGIESAVQKKIVKLIKDSKLKVQAQIQGEEIRVTGKSRDDLQSVMALVRGGDLGQPFQFKNFRD | not soluble
3 | MGSDKIHHHHHHMKNLLGYSEDYLKERKGYITAKEICNQPKLWRETYEIILSQREKLKSFLDNFAKKPNAKIVITGAGSSAFVGNSVVSYLNAKENIKIEAIATTDIVSHPFYYLKKDEPTLLISCARSGNSPESTAAVTLAEKIVDDISHLIITCNSEGKLALHAKRNYNSFLLLMPEESNDKGFAMTGSFSTMLLSCLLIFNLDKLESIGKQIESISMQGEKVLVNNVELMKKIVGEKFKRTVYLGAANAFGLAKESALKVLELTAGKIATLYDTPLGFRHGPKSIIDDETLIVIFFSNDTYAREYEYDLLKEVYSQNGNHKVLAISEYEDKLIEDNSDYFIAINKEEQEYEDDSFLSLDYLLNAQMYAFINSMELGIGPDNPCPTGEVNRVVKGVIIHDYR | not soluble
4 | MGSDKIHHHHHHMETARHRNTWHIHPDPEALARRLAAAVARMAREAITARGAFHLVVAGGTTPRAAYALLPQLGSDWQCWHLYHGDERCLPPQDPDRNSLMLDTVWLSRVPIPTRQIHHIPAERGADVAARDYAAVLPPHAFDLVLLGVGEDGHTASLFPGHDWGMAKNGPATIAVHDAAKAPPQRVSLSGWRLQYTREMFFMAAGGGKRSALTAWRQGEPIPAATVGTTADIWLDNTAWPEVVPGTI | not soluble
5 | MSGIKSLELLLQSMSPELMAGDYVFCTVNGALSDYLSLEPIATFREPEGLTLVLEAEKAQQAGLESSALFSLITLTVHSSLEAVGLTAAFATKLAEHGISANVIAGYYHDHIFVQKEKAQQALQALGEFAQA | soluble
6 | MGSDKIHHHHHHMTAQRPNRLINESSPYLLQHARNPVDWHPWGEEAFALARSEDKPVFLSIGYSTCHWCHVMAHESFEDEAVAALLNEAFINVKVDREDRPDIDSIYMAACQMLTGSGGWPLTIVMTPDGRPFFAATYIPRLSRGGRTGMLELVPRIRDIWRKQRADVTASADSVAEHMRRHAEGLLRPSSGGAPDDTTVRQAVDTLCQRYDARHGGFGSAPKFPAPHSLLLLLRHAHRTQDAARRAQLTGMVSHTLEAMRLGGIFDHAGYGFHRYSTDKEWLLPHFEKMLYDQAMHVLAYTRGWQLTGRPLFRRTAEEIMMYVMRDLTSPQGAFYAAEDADSDAPPHFAAMGLPHRGEGFFYLFTLQEIRGLLSREDALLAEKIWNLQEEGN | not soluble
7 | MGSSHHHHHHSSGLVPRGSHMKGDKRRDIRDILLHDETLFRNMNAFDPDYVPENYRYRESQMEALAVCIRPALRNGRPVNAVILGSCATGKTTAIKKIFEMVESTSEGVVCCYINCQLHTTRFGIFSQIYSKIFGHQPPETGVPFSRIYQTIMQHLASEKRALVVALDDINHLFYSKNANKVLYDILRAHEVFEGVRTGVFAVLSDIEFRYALDKNVDSIFIPQEIVFPPYTREEVFNILRDRVRVGFYPGVISDELLERITDHTMDTGDLRYGIDLLRVCGNLAEADASPVIGEEHLERALKSTGPVNLIHTVRTLNENEREFLRILADAGEDMTAGALYELFRESTGSSYSSFNRIIEKLEFLRLIDTRLTGKGVRGNSRILIPRFSREDLRRCPGF | soluble
8 | SLKIAIVRLSALGDIIQSAVVLQFIKNFKKDIEIHWFVDEKFEGILKNHPLINKLYALPLKDKKILKSLKILLKARKNNYNAVIDLQGLIKSAIVSRILSRNNFGFDKNSLKESFAHNFYNQKLELDYNENVFVRYLSLTSFMLNTDFNVKNLAFKQDIFSVDENLKQLLNNKLKLDKNEKNILIHVGSSVENKIYPKTKLAILCKLLINEFQQTKIWLAWGNVKEYEFAKEVLNLSGIDETHIELAPKFNLEELMAFTKMMNLIIGNDSGPTHLAFALNKASITIFGATPSYRNAFQTHINKIIDAGKKIQNAKHIDKSDFCITRIEEEDIFKLAKGLLN | soluble
